Data reported in the supplement of paper PMC9732359.
± gives the uncertainty stated by the source.

Assay: protein stability index of a GFP-peptide fusion (yeast GPS) (PSI 1-4); higher = more stable; sorted into four equal gates, so the index is relative within each strain
Conditions: ubr1∆
Procedure, shortened: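 Tiled 17-residue yeast protein peptides were fused downstream of GFP in a plasmid that also expresses Cherry, and the pooled library was carried in yeast. Mid-log cultures in leucine-free medium were sorted into four equal gates by GFP/Cherry fluorescence ratio, and plasmids from each gate were PCR-amplified and Illumina-sequenced, with reads assigned to strains by barcodes. The protein stability index for each peptide was each gate's read frequency times its gate number, summed.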

Row | Sequence | protein stability index
1 | VAIQQGDIKPEFSPRLH [YML103C/NUP188] | 2.83 ± 0.068
2 | VAKTAPNSNKTHTEQNN [SNF2] | 3.06 ± 0.037
3 | VAKVDEEGRAIPGEYIT [RPS21B] | 2.77 ± 0.065
4 | VANSPNKRLDVIDGKLP [YDL088C/ASM4] | 2.11 ± 0.058
5 | VAQLKPFFKYIDDANVT [RPC37] | 2.8 ± 0.07
6 | VARTFWASKYGQEYPRI [BRR2] | 3.06 ± 0.094
7 | VATNIVNEDPIFHPMIH [YML103C/NUP188] | 2.58 ± 0.038
8 | VCGIIVKQEDMPFNDQG [RET1] | 2.49 ± 0.21
9 | VDAYRRLENKLSEIESL [SRP68] | 1.68 ± 0.062
10 | VDDLRPEFAGYSKAAEP [ASC1] | 3.67 ± 0.16
11 | VDDSMELCGQIRSERFK [ITC1] | 2.94 ± 0.13
12 | VDEPMTSAVELGAIEQI [YJL039C/NUP192] | 2.87 ± 0.28
13 | VDINRLKKGEVSLGTSI [PRE3] | 1.33 ± 0.06
14 | VDKELLEPGCSVLLHHK [RPT2] | 2.66 ± 0.12
15 | VDKIFEKVNNNATLTPN [SWI1] | 3.15 ± 0.051
16 | VDLTSSNFADSADYEIL [YDL116W/NUP84] | 3.29 ± 0.09
17 | VDQGQIYRDRSTFTKHL [ITC1] | 3.15 ± 0.037
18 | VDSRTKIRMLTQAAEFL [IRR1] | 2.81 ± 0.079
19 | VDVQAPTDDKTLKPTFS [YOR098C/NUP1] | 3.27 ± 0.076
20 | VEDTLHVNKRKRVSGTS [YOR098C/NUP1] | 1.52 ± 0.077
21 | VEIEKRILKLGTQLATL [YGR119C/NUP57] | 1.4 ± 0.066
22 | VEILFEAGASAELDDCR [RPO21] | 3.49 ± 0.16
23 | VEKRIGKIVSQRGKWNL [RGR1] | 2.71 ± 0.036
24 | VENIERVVMMKYDRKVP [RPO21] | 2.36 ± 0.085
25 | VERGRVGACTDEEMTIS [RRP43] | 3.23 ± 0.2

Row | Sequence | protein stability index
26 | VESQFSAGRLYACISSR [RPS8A] | 2.55 ± 0.14
27 | VEWINPSRRERRREQTT [ISW2] | 3.39 ± 0.15
28 | VEYLDVNEENDSYIALY [RET1] | 3.2 ± 0.12
29 | VEYVDPTVNRVPNYEVS [RPN7] | 3.8 ± 0.15
30 | VFFDDDPLYDITKVPAL [REC8] | 2.88 ± 0.055
31 | VFQLPTRLPAFERPAVK [RPC53] | 3.01 ± 0.079
32 | VFVNTGLQNVRKVRTKK [SWP82] | 3.11 ± 0.15
33 | VGCIFAELIGLQPIFKG [SSN3] | 2.5 ± 0.094
34 | VGEEETSQKMKKMVYVL [SRP54] | 3.17 ± 0.077
35 | VGEKLVVVVLEEPSASI [SIR3] | 3.1 ± 0.13
36 | VGGKSTVQNEILGDLGK [FAS2] | 3.25 ± 0.11
37 | VGGQFSKVQFDAKTSYP [REC8] | 3.19 ± 0.055
38 | VGKLFRVGVVSILEAGD [RPL30] | 1.67 ± 0.081
39 | VGLVMFSQFWYWFPLAH [RPN2] | 1.41 ± 0.051
40 | VGVGKLNKLYGGAKSRG [RPS19A] | 3.58 ± 0.11
41 | VHDKILEDLVFPTEIVG [RPS7A] | 3.31 ± 0.1
42 | VHTIIAGLDEDGKGAVY [PRE7] | 3.32 ± 0.093
43 | VHVQLLINLKISPLMKS [SRB8] | 1.44 ± 0.05
44 | VIDGKLPFMQNAGPNSN [YDL088C/ASM4] | 2.92 ± 0.04
45 | VIELPLKNPEIFQRVGI [RPT4] | 2.29 ± 0.17
46 | VISTIENVLFYIGRVNK [COB] | 2.62 ± 0.065
47 | VKAFLSIFEDAIKELNY [NUT1] | 2.62 ± 0.19
48 | VKCKMSALQQIMYQQML [SNF2] | 2.8 ± 0.074
49 | VKDELMFSPLVDSGSND [RPO21] | 3.21 ± 0.048
50 | VKDKQSKVSDDSESESG [RPN8] | 2.9 ± 0.13

Row | Sequence | protein stability index
51 | VKGETRIQNRVKLGLNS [PRP8] | 2.58 ± 0.15
52 | VKIGDIEKWTANLLPAR [RPS22A] | 3.17 ± 0.087
53 | VKKPHRYKPGTVALREI [HHT1] | 3.25 ± 0.12
54 | VKLMKNITDYETHPDNS [BRR2] | 2.09 ± 0.04
55 | VKNKYNVGKQLSNEIIY [PRP28] | 2.57 ± 0.052
56 | VKSEVDVQVDAEEKREA [ITC1] | 3.16 ± 0.11
57 | VKSLVDNMITGVTKGYK [RPL9A] | 3.11 ± 0.073
58 | VKTSPDAKKCIAACTGV [FAS1] | 2.48 ± 0.08
59 | VKVKVSYQKLLKNYVLN [PRP8] | 1.63 ± 0.036
60 | VKVQPEGKYIVDVAKDI [RPT6] | 3.16 ± 0.11
61 | VKYINFGKTVKDGPFYT [RPC31] | 2.29 ± 0.044
62 | VLDKMHARARGPRAVLT [RET1] | 3.09 ± 0.087
63 | VLEKKTRQASDLASSKE [RPN5] | 2.97 ± 0.24
64 | VLESHWKQDLTKEEAIK [PUP1] | 3.08 ± 0.15
65 | VLGFLQLFHNLISIHSR [YJL039C/NUP192] | 2.98 ± 0.048
66 | VLLDARDIEKITSLYAL [CDC53] | 2.02 ± 0.029
67 | VLNCLRTMYFILDGQDV [YJR042W/NUP85] | 1.34 ± 0.078
68 | VLNQQLPIESQFVSKLV [BRR2] | 2.01 ± 0.043
69 | VLPKIFNSVKSFDEWFN [SNF2] | 1.77 ± 0.077
70 | VLPLGSVPEGTIVSNVE [RPL2A] | 3.12 ± 0.094
71 | VLRKQKRYTVKKALAKA [RPL14A] | 1.55 ± 0.19
72 | VLRLKPGRKYTTLGKLS [RPL16A] | 3.03 ± 0.051
73 | VLSALEGKSVDELITEG [RPP2A] | 3.45 ± 0.28
74 | VLTQLTALALKYLIKYN [CSI1] | 2.47 ± 0.074
